Molecular target: ^15N labeled FLNA repeat 21

- CBRM1/5 binding (αMβ2 activation) on human neutrophils treated with 50 µM peptide for 5 min at 37°C, flow cytometry: 2 fold
Binder: MASKPEKRVASSVFITLAPPRRDVRRRRRRRRR [WTMigfilinR9 peptide]

Reference: PMC3197140
